Drawing on patent US20240116985A1 (published 2024), this text covers IC50 and EC50 for 7 molecules.

Starred links: 1 amine or outer side, 2 acyl side, 3 side chain; linkers in the order of their positions; H or OH if unused. Positions of bridges follow the written chain, without caps; N, C: chain ends. Non-standard residues stand in square brackets, D forms with d. Primed or numbered codes have the meaning given here. PyrS2″ = (S)-3-amino-1-((pent-4-en-1-yloxy)carbonyl)pyrrolidine-3-carboxylic acid (stapling residue), C=CCCCOC(=O)N1CC[C@@](N[*:1])(C(=O)[*:2])C1; SeN″ = (S)-5-(((allyloxy)carbonyl)(methyl)amino)-2-amino-2-methylpentanoic acid (stapling residue), C=CCOC(=O)N(C)CCC[C@](C)(N[*:1])C(=O)[*:2]; B5(16) = 2-amino-2-(pent-4-en-1-yl)hept-6-enoic acid = 2,2-bis(4-pentenyl)glycine (stitching residue), C=CCCCC(CCCC=C)(N[*:1])C(=O)[*:2]; B5(4) = 2,2-bis(4-pentenyl)glycine = 2-amino-2-(pent-4-en-1-yl)hept-6-enoic acid (stitching residue), C=CCCCC(CCCC=C)(N[*:1])C(=O)[*:2]; B5(21) = 2-amino-2-(pent-4-en-1-yl)hept-6-enoic acid, bis(4-pentenyl)glycine (stitching residue), C=CCCCC(CCCC=C)(N[*:1])C(=O)[*:2]; SeN = (S)-5-(((allyloxy)carbonyl)(methyl)amino)-2-amino-2-methylpentanoic acid, C=CCOC(=O)N(C)CCC[C@](C)(N[*:1])C(=O)[*:2]; B5 = 2-amino-2-(pent-4-en-1-yl)hept-6-enoic acid, C=CCCCC(CCCC=C)(N[*:1])C(=O)[*:2]; Phe(3-CF3) = N[C@@H](Cc1cccc(C(F)(F)F)c1)C(=O)O; Phe(2-Cl) = N[C@@H](Cc1ccccc1Cl)C(=O)O; Bta = N[C@@H](Cc1csc2ccccc12)C(=O)O; αAllylPro = C=CC[C@@]1(C(=O)O)CCCN1; S8 = C=CCCCCCC[C@](C)(N)C(=O)O

Test [1] deals with T1, beta-Catenin (full-length, Uniprot ID P35222) (Homo sapiens (Human), UniProt P35222 1-781).
T1 construct: also called bCat; B-Catenin
T1 sequence: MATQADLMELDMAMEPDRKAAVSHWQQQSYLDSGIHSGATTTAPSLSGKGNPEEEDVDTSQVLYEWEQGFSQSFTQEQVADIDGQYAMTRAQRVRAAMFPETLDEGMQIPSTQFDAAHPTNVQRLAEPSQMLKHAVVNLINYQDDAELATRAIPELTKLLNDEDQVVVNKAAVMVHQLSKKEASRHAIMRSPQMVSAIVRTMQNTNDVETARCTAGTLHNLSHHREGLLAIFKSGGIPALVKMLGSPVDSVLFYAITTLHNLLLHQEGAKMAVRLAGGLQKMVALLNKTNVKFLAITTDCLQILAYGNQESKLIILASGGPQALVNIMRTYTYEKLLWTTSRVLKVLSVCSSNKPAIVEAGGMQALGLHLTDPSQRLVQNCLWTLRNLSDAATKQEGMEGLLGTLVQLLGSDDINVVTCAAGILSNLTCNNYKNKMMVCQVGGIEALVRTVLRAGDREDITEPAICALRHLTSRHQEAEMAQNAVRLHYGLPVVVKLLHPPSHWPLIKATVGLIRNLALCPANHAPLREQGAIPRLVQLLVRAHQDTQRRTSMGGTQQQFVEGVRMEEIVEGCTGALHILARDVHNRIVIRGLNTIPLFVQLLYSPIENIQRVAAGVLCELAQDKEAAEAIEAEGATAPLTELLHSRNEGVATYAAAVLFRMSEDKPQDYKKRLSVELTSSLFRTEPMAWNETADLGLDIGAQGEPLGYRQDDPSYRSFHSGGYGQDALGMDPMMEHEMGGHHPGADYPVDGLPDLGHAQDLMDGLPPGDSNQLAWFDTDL
The test can be described thus: fluorescence polarization competition: peptide titrated against 10 nM full-length beta-catenin + 10 nM 5FAM-labeled TCF4 residues 10-53 probe. As to the method: (§1) The plate was incubated protected from light for 60 minutes at 20° C. prior to read. Reads were performed on a CLARIOstar plate reader (BMG Labtech) in duplicate, and data were fitted to a 1:1 binding model with hill slope using an in-house script. All provided concentrations are final concentrations.
On the technique in general: In fluorescence polarisation assays a small probe gives low polarisation when free and higher when bound to something large.

For test [2], the target named is T2, full-length beta-Catenin (Uniprot ID P35222) (Homo sapiens (Human), UniProt P35222 2-781).
T2 construct: also called B-Catenin; bCat
T2 sequence: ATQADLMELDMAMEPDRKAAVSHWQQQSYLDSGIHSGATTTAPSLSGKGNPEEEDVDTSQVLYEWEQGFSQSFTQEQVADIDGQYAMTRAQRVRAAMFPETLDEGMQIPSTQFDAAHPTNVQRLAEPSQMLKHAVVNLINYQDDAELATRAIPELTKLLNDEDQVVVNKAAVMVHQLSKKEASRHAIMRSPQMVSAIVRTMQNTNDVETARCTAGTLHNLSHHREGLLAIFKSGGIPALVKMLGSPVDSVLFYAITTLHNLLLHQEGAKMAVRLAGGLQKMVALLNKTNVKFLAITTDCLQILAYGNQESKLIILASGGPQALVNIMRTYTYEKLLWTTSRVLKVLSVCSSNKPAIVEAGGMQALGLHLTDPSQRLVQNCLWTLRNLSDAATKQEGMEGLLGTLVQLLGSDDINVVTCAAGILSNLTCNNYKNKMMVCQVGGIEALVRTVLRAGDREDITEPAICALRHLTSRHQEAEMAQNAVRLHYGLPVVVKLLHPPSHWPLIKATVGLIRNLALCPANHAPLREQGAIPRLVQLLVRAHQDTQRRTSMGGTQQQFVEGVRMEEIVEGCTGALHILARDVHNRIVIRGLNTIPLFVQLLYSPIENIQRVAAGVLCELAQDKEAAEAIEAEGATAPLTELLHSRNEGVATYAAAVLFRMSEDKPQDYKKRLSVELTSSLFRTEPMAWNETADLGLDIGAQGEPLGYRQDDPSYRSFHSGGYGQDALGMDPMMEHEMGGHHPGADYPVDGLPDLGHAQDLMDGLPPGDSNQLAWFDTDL
The test can be described thus: fluorescence polarization competition; 5FAM-TCF4(10-53) probe with full-length beta-catenin. As to the method:
as §1

The target in test [3] is T2, full-length beta-Catenin (Uniprot ID …). The test can be described thus: Alphascreen competition; biotin-TCF4(10-53) probe with full-length beta-catenin. The method, then: Equal volume of the titrated peptide was added to the plate and incubated for 15 minutes at 20° C. Then 4 uL of donor and 4 uL acceptor beads at 10 ug/mL were added to the plate, for a 16 uL reaction pool and protected from light for 60 minutes at 20° C. prior to read. Reads were performed on a CLARIOstar plate reader (BMG Labtech) in duplicate, and data were fitted to a 1:1 binding model with hill slope using an in-house script. All provided concentrations are final concentrations.
In general terms: Alpha assays give light when donor and acceptor beads are brought close together.

Test [4] deals with T3, full-length beta-Catenin (Uniprot ID P35222) (Homo sapiens (Human), UniProt P35222 2-781).
T3 construct: Used full-length in both the FP and the AlphaScreen assay; also called B-Catenin; bCat
T3 sequence: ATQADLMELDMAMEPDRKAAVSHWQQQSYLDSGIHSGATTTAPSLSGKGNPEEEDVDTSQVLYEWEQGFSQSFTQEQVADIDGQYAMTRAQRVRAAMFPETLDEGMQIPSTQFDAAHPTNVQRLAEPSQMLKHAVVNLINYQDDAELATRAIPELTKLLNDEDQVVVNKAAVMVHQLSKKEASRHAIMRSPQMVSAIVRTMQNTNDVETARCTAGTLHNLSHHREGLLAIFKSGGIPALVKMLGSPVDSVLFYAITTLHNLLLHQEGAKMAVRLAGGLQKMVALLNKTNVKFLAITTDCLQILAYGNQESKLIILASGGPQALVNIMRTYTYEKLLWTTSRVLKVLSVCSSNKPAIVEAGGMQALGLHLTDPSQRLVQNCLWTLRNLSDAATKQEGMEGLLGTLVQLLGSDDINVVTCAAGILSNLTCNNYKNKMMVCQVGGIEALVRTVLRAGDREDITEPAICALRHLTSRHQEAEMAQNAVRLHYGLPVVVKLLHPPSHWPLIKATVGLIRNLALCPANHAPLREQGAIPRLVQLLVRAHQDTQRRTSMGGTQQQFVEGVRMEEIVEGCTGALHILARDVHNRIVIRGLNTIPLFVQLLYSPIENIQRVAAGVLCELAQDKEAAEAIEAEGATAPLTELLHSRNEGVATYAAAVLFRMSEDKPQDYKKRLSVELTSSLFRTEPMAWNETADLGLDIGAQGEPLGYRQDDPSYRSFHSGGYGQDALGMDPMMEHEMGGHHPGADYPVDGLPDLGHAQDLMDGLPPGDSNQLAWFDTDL
The test can be described thus: AlphaScreen competition; full-length beta-catenin, biotin-TCF4(10-53) probe. In a few lines: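 Titrated peptide was preincubated 15 minutes at 20° C, then donor and acceptor beads were added for 60 minutes at 20° C protected from light. Reads were done in duplicate, and data were fitted to a 1:1 binding model with Hill slope; concentrations are final.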

For test [5], the target named is T3, full-length beta-Catenin (Uniprot ID …). Put plainly: fluorescence polarization competition; full-length beta-catenin, 5FAM-TCF4(10-53) probe. As to the method:
as §1

Test [6] deals with T4, full-length beta-Catenin (Uniprot ID P35222) (Homo sapiens (Human), UniProt P35222 1-781).
T4 construct: also called bCat
T4 sequence: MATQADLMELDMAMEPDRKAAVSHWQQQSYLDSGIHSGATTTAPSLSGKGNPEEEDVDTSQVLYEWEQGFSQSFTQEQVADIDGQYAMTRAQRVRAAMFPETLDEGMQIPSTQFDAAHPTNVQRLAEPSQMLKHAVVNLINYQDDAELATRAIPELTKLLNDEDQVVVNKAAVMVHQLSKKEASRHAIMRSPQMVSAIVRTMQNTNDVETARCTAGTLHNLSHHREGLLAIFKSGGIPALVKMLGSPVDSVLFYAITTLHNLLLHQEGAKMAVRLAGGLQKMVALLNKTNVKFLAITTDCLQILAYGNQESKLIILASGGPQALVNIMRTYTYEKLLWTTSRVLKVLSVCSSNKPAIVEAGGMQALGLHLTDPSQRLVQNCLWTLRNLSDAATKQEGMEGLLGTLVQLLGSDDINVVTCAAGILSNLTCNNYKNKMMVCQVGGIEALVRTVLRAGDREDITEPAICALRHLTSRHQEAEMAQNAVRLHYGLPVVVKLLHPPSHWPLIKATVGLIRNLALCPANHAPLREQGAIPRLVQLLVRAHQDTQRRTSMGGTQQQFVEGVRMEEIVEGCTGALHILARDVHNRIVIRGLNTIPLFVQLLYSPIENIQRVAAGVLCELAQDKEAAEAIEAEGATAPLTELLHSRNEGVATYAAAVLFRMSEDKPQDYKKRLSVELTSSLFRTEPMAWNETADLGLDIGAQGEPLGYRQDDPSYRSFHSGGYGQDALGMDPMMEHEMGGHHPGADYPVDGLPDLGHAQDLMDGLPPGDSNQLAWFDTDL
Put plainly: fluorescence polarization competition; full-length beta-catenin; competitor 5FAM-TCF4(10-53) probe. The method, then: as §1

For Ac-[αAllylPro]DA[B5]DDAAFV[S8][Phe(3-CF3)]WQ-NH2 (staple 1-4, 4-11, These are separate isomer compositions) [I-250: Ac-PL3-Asp-Ala-B5-Asp-Asp-Ala-Ala-Phe-Val-S8-3F3MeF-Trp-Gln-NH2], the IC50 in test [1] came out at 5 µM.

B1: I-131 (peptide)
peptide: Ac-[αAllylPro]DA[B5(4)]DEAAFV[SeN″]FWQ-NH2
modifications: staple 1-4, 4-11
notes: Stitched (two-staple) peptide composition; same description as I-130, separate later-eluting HPLC peak (staple isomer)
In the case of B1, the values for the EC50 in test [2] and in test [3] were 2.16 µM and 0.4 µM, respectively.

B2: I-53 (peptide)
peptide: Ac-[αAllylPro]DA[B5(21)]DDAAFV[SeN″]FWQ-NH2
modifications: staple 1-4, 4-11; also: earlier-eluting HPLC isomer, E/Z not given here
notes: Stapled (stitched) peptide; also called Ac-PL3-Asp-Ala-B5-Asp-Asp-Ala-Ala-Phe-Val-SeN-Phe-Trp-Gln-NH2
Take B2: the EC50 in test [4] was found to be 1.14 µM; in test [5] it was 5 µM.

B3: I-54 (peptide)
peptide: Ac-[αAllylPro]DA[B5(21)]DDAAFV[SeN]FWQ-NH2
modifications: staple 1-4, 4-11
notes: as for B2
With B3, the results for the EC50 in test [4] and in test [5] were 0.482 µM and 3.19 µM, respectively. Ac-[αAllylPro]DF[B5(16)]DDLAFT[PyrS2″][Phe(2-Cl)][Bta]S-NH2 (staple 1-4, 4-11, stapled peptide) [I-1156] gave an EC50 in test [6] of 0.014 µM.

For Ac-[αAllylPro]DF[B5(4)]DDALFT[PyrS2″][Phe(2-Cl)][Bta]S-NH2 (staple 1-4, 4-11, stapled peptide) [I-1157], in test [6], the midpoint of the response, the EC50, lay at 0.036 µM.

B4: I-133 (peptide)
peptide: XDAXDEAAFVXFWX
modifications: not fully specified; as printed: Ac-PL3-Asp-Ala-B5-Asp-Glu-Ala-Ala-Phe-Val-S8-Phe-Trp-Aib-NH2; staples PL3(1)-B5(4) and B5(4)-S8(11)
notes: Stitched (two-staple) peptide composition
In turn, B4 returned an EC50 in test [2] of 5 µM.

In general, IC50 refers to the point on the concentration scale where inhibition reaches its midpoint. Usually EC50 stands for the midpoint of the concentration-response curve. A high value points to a less potent agent.
